Measurements taken from PMC5473857.

Target: FtsZ-F268C labeled with fluorescein 5-maleimide (donor) or tetramethylrhodamine 5-maleimide (acceptor) (E. coli) (UniProt P0A9A6)

Substance: N-terminally truncated ZipA (26-328) from E. coli (from UniProt P77173 26-328) (domain or fragment)
- FRET assay of subunit exchange of FtsZ protofilaments at steady state with ZipA, pH 6.5: reaction time τ (13.1 s for FtsZ alone): 25.2 s
